Like-named read-outs stand apart in the source and are kept apart here.
Key:
rat = settings: cited from earlier work
[1] = Total Hb over time of stroma free hemoglobin with/without solvent-detergent; type: physicochemical
Description: (§1) The solvent-detergent treatment was performed at a concentration of 1% Tween 80 […] and 0.3% Tri-N-Butyl Phosphate […]. […] All testing was performed at neutral pH in phosphate buffered saline.
(§2) After treatment, the mixture was centrifuged at 8,000 rpm (4,600 g) for 6 minutes at room temperature.

[2] = Percentage Met-Hb over time of stroma free hemoglobin with/without solvent-detergent; type: physicochemical
Description: as §1, §2

[3] = in vivo; cited from earlier work

CCCO [1-Propanol]
LD50 (oral-rat) (rat; in vivo, po): 1900 mg/kg

CCC(C)=O [2-Butanone]
LD50 (oral-rat) (rat; oral): 2700 mg/kg

CC(C)O [2-Propanol]
LD50 (oral-rat) (rat; in vivo, po): 5000 mg/kg

CC#N [Acetonitrile]
LD50 (oral-rat) (rat; oral): 3800 mg/kg

COCCOC [Dimethoxy- ethane (glyme), Dimethoxy- ethane]
LD50 (oral-rat) (rat; oral): 10000 mg/kg

CCOC(C)=O [Ethyl acetate]
LD50 (oral-rat) (rat; in vivo, po): 11000 mg/kg

CO [Methanol]
LD50 (oral-rat) (rat; oral): 5600 mg/kg

SFH: stroma free hemoglobin prepared as in Example 1, 8.6-9.0 g % in PBS
Total Hb ([1]; 2-6° C., 0 hrs): 8.6 g % | Total Hb ([1]; 2-6° C., 1 hrs): 8.5 g % | Total Hb ([1]; 2-6° C., 2 hrs): 8.55 g % | Total Hb ([1]; 2-6° C., 3 hrs): 8.65 g % | Total Hb ([1]; 2-6° C., 4 hrs): 8.65 g % | Total Hb ([1]; 2-6° C., 5 hrs): 8.55 g % | Total Hb ([1]; 21-23° C., 0 hrs): 8.5 g % | Total Hb ([1]; 21-23° C., 1 hrs): 8.55 g % | Total Hb ([1]; 21-23° C., 2 hrs): 8.55 g % | Total Hb ([1]; 21-23° C., 3 hrs): 8.65 g % | Total Hb ([1]; 21-23° C., 4 hrs): 8.6 g % | Total Hb ([1]; 21-23° C., 5 hrs): 8.55 g % | Percentage Met-Hb ([2]; 2-6° C., 0 hrs): 2.15% | Percentage Met-Hb ([2]; 2-6° C., 1 hrs): 2.2% | Percentage Met-Hb ([2]; 2-6° C., 2 hrs): 2.25% | Percentage Met-Hb ([2]; 2-6° C., 3 hrs): 2.15% | Percentage Met-Hb ([2]; 2-6° C., 4 hrs): 2.1% | Percentage Met-Hb ([2]; 2-6° C., 5 hrs): 2.25% | Percentage Met-Hb ([2]; 21-23° C., 0 hrs): 2.2% | Percentage Met-Hb ([2]; 21-23° C., 1 hrs): 2.4% | Percentage Met-Hb ([2]; 21-23° C., 2 hrs): 2.45% | Percentage Met-Hb ([2]; 21-23° C., 3 hrs): 2.45% | Percentage Met-Hb ([2]; 21-23° C., 4 hrs): 2.6% | Percentage Met-Hb ([2]; 21-23° C., 5 hrs): 2.8%

conjugate of hemoglobin (with a molecular weight of 64,000) and dextran (having a molecular weight of 20,000): hemoglobin conjugated to dextran of molecular weight 20,000, reported by Blumenstein et al.
clearance from the circulation and through the kidneys [3]: cleared slowly from the circulation and negligibly through the kidneys
